Experimental data from patent publication US20250034277A1 (SUZHOU ALPHAMAB, published 2025).

Key:
hFXI-CHis protein = target: T1, hFXI-CHis protein (human, UniProt P03951 19-625); experiment: BLI, antibody on Protein A biosensor, hFXI-Chis 50-3.125 nM, 1:1 model
T1 construct: FXI is said in the background to be a dimer; nothing is said of the construct; also called human FXI; human FXI factor protein; not shown: C-terminal His tag (CHis)

FXI in monkey plasma = FXI in monkey plasma (monkey); experiment: cell-based or functional assay
[1] = target: T2, FXI in standard human plasma (human, UniProt P03951 19-625); experiment: cell-based or functional assay
[2] = target: T2, FXI in standard human plasma; experiment: cell-based or functional assay; remark: listed apart in the source
FXI in rabbit plasma [3] = target: FXI in rabbit plasma (rabbit); experiment: cell-based or functional assay
FXI in rabbit plasma [4] = target: FXI in rabbit plasma (rabbit); experiment: cell-based or functional assay; remark: listed apart in the source
FXI in rat plasma = FXI in rat plasma (rat); experiment: cell-based or functional assay
FXI in cynomolgus plasma = FXI in cynomolgus plasma (cynomolgus); experiment: cell-based or functional assay

B1: reference antibody BAY1213790 (antibody, human IgG1, kappa, V domains shown)
VH: EVQLLESGGGLVQPGGSLRLSCAASGFTFSQYGMDWVRQAPGKGLEWVSGIGPSGGSTVYADSVKGRFTISRDNSKNTLYLQMNSLRAEDTAVYYCTRGGPYYYYGMDVWGQGTTVTVSS
VL: DIQMTQSPSSLSASVGDRVTITCQASQDISNYLNWYQQKPGKAPKLLIYDASNLETGVPSRFSGSGSGTDFTFTISSLQPEDIATYYCQQADSFPVTFGGGTKVEIKR
notes: Anti-FXI antibody developed by Bayer
hFXI-CHis protein
  Kd: 4.12 nM
FXI in monkey plasma
  whole blood APTT in monkey plasma at 0.1 µg/mL: 21
  whole blood APTT in monkey plasma at 0.5 µg/mL: 23.1
  whole blood APTT in monkey plasma at 1 µg/mL: 25.6
  whole blood APTT in monkey plasma at 2 µg/mL: 30.2
  whole blood APTT in monkey plasma at 5 µg/mL: 37.1
  whole blood APTT in monkey plasma at 10 µg/mL: 42.5
[1]
  whole blood APTT in standard human plasma at 0.1 µg/mL: 22.9
  whole blood APTT in standard human plasma at 0.5 µg/mL: 26.3
  whole blood APTT in standard human plasma at 1 µg/mL: 29.2
  whole blood APTT in standard human plasma at 2 µg/mL: 36.4
  whole blood APTT in standard human plasma at 5 µg/mL: 45.6
  whole blood APTT in standard human plasma at 10 µg/mL: 51.1
[2]
  APTT ratio in standard human plasma at 0.1 µg/mL: 1 ratio
  APTT ratio in standard human plasma at 0.5 µg/mL: 1.14 ratio
  APTT ratio in standard human plasma at 1 µg/mL: 1.27 ratio
  APTT ratio in standard human plasma at 2 µg/mL: 1.58 ratio
  APTT ratio in standard human plasma at 5 µg/mL: 1.98 ratio
  APTT ratio in standard human plasma at 10 µg/mL: 2.22 ratio
FXI in rabbit plasma [3]
  whole blood APTT in rabbit plasma at 0.1 µg/mL: 15.3
  whole blood APTT in rabbit plasma at 0.5 µg/mL: 16
  whole blood APTT in rabbit plasma at 1 µg/mL: 16.4
  whole blood APTT in rabbit plasma at 2 µg/mL: 18.1
  whole blood APTT in rabbit plasma at 5 µg/mL: 24.1
  whole blood APTT in rabbit plasma at 10 µg/mL: 28.8

B2: reference antibody 14E11 (antibody, human IgG1, kappa, V domains shown)
VH: QVQLEESGPGLVAPSQSLSITCTVSGFSLTGYGIYWVRQPPGKGLEWLGMIWGDGRTDYNSALKSRLSISKDNSKSQVFLKMNSLQTDDTARYYCARDYYGSKDYWGQGTTLTVSS
VL: DIVMTQSHKFMSTSVGDRVSITCKASQDVSTAVAWYQQKPGQSPKLLIYLTSYRNTGVPDRFTGSGSGTDFTFTISSVQAEDLAVYYCQQHYKTPYSFGGGTKLERLR
FXI in rabbit plasma [4]
  APTT ratio in rabbit plasma at 0.1 µg/mL: 0.85 ratio
  APTT ratio in rabbit plasma at 0.5 µg/mL: 0.88 ratio
  APTT ratio in rabbit plasma at 1 µg/mL: 0.93 ratio
  APTT ratio in rabbit plasma at 2 µg/mL: 1.17 ratio
  APTT ratio in rabbit plasma at 5 µg/mL: 1.88 ratio
  APTT ratio in rabbit plasma at 10 µg/mL: 2.05 ratio
FXI in monkey plasma
  whole blood APTT in monkey plasma at 0.1 µg/mL: 20.9
  whole blood APTT in monkey plasma at 0.5 µg/mL: 22.4
  whole blood APTT in monkey plasma at 1 µg/mL: 24.7
  whole blood APTT in monkey plasma at 2 µg/mL: 39.6
  whole blood APTT in monkey plasma at 5 µg/mL: 51.4
  whole blood APTT in monkey plasma at 10 µg/mL: 52.8
FXI in rat plasma
  APTT ratio in rat plasma at 0.5 µg/mL: 1.08 ratio
  APTT ratio in rat plasma at 1 µg/mL: 1.04 ratio
  APTT ratio in rat plasma at 2 µg/mL: 1.13 ratio
  APTT ratio in rat plasma at 5 µg/mL: 1.37 ratio
  APTT ratio in rat plasma at 10 µg/mL: 1.34 ratio
  APTT ratio in rat plasma at 30 µg/mL: 1.37 ratio
[1]
  whole blood APTT in standard human plasma at 0.1 µg/mL: 22.9
  whole blood APTT in standard human plasma at 0.5 µg/mL: 25.1
  whole blood APTT in standard human plasma at 1 µg/mL: 28.3
  whole blood APTT in standard human plasma at 2 µg/mL: 38.3
  whole blood APTT in standard human plasma at 5 µg/mL: 47.2
  whole blood APTT in standard human plasma at 10 µg/mL: 48.1
FXI in cynomolgus plasma
  APTT ratio in cynomolgus plasma at 0.1 µg/mL: 1 ratio
  APTT ratio in cynomolgus plasma at 0.5 µg/mL: 1.07 ratio
  APTT ratio in cynomolgus plasma at 1 µg/mL: 1.18 ratio
  APTT ratio in cynomolgus plasma at 2 µg/mL: 1.89 ratio
  APTT ratio in cynomolgus plasma at 5 µg/mL: 2.46 ratio
  APTT ratio in cynomolgus plasma at 10 µg/mL: 2.53 ratio
[2]
  APTT ratio in standard human plasma at 0.1 µg/mL: 1 ratio
  APTT ratio in standard human plasma at 0.5 µg/mL: 1.09 ratio
  APTT ratio in standard human plasma at 1 µg/mL: 1.23 ratio
  APTT ratio in standard human plasma at 2 µg/mL: 1.67 ratio
  APTT ratio in standard human plasma at 5 µg/mL: 2.05 ratio
  APTT ratio in standard human plasma at 10 µg/mL: 2.09 ratio
FXI in rabbit plasma [3]
  whole blood APTT in rabbit plasma at 0.1 µg/mL: 15.6
  whole blood APTT in rabbit plasma at 0.5 µg/mL: 16.1
  whole blood APTT in rabbit plasma at 1 µg/mL: 17.2
  whole blood APTT in rabbit plasma at 2 µg/mL: 21.5
  whole blood APTT in rabbit plasma at 5 µg/mL: 34.5
  whole blood APTT in rabbit plasma at 10 µg/mL: 37.8
